Assay: label from the status in PepcDB records
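Also: failed if final PepcDB status was selected cloned or expressed and not failed if soluble or beyond.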

Protein production, not failed:
MTIATIDIGGTGIKFASLTPDGKILDKTSISTPENLEDLLAWLDQRLSEQDYSGIAMSVPGAVNQETGVIDGFSAVPYIHGFSWYEALSSYQLPVHLENDANCVGLSELLAHPELENAACVVIGTGIGGAMIINGRLHRGRHGLGGEFGYMTTLAPAEKLNNWSQLASTGNMVRYVIEKSGHTDWDGRKIYQEAAAGNILCQEAIERMNRNLAQGLLNIQYLIDPGVISLGGSISQNPDFIQGVKKAVEDFVDAYEEYTVAPVIQACTYHADANLYGALVNWLQEEKQW
MTIQLTVPTIACEACAEAVTKAVQNEDAQATVQVDLTSKKVTITSALGEEQLRTAIASAGHEVE
MTISRTQQIQQLEQEWTSPRWKNITRPYSAEDVIKLRGSVNPECTFAQNGAKKLWELLHGGSRKGYINCLGALTGGQALQQAKAGVEAIYMSGWQVAADANTASSMYPDQSLYPVDSVPAVVKRINNSFRRADQIQWSNNIEPGSKGYTDYFLPIVADAEAGFGGVLNAFELMKAMIEAGAAGVHFEDQLAAVKKCGHMGGKVLVPTQEAIQKLVAARLAADVLGVPTLLIARTDADAADLLTSDCDPYDREFITGDRTAEGFFRTRAGIEQAISRGLAYAPYADLVWCETSTPDLALAKRFADAVHAQFPGKLLAYNCSPSFNWKKNLTDQQIASFQDELSAMGYKYQFITLAGIHSMWFNMFDLAHAYAQGEGMKHYVEKVQQPEFASVDRGYTFASHQQEVGTGYFDKVTNIIQGGASSVTALTGSTEEQQF

Protein production, failed:
MTHTIIHPSSSKSSFESPAMAYRINCQQGQTHLLWVTLRLTAPQTDVLDLHLPVWTPGSYLVREYARHLQDFTAATADGTPLEWWKCTKNQWQVACTPGLELKVRYAIYAHELSVRTSHFDRSHAYFNPAAVCLYVPQYRDQPLTITIEAPPDWRVTTPLEGWGEDGRTFWAPNYDLLVDSPFEVGTHGIYTFEVDGKPHELAVWGKGNFDPKRAIADIQRIIETEASFFGGLPYDRYVFILHLTHKGYGGLEHLNSCSLIFHRFGFQQPEQYCRFLCLVAHEFFHLWNIKRIRPQAFEVFDYDSENYTTSLWFVEGVTSYFDQLIPLWAGLFDAPTYLKLLSDSLNRYFHTPGRFVQSLSAASFDAWIKLYRPDENSINSQMSYYLKGELVALLLDLRIRLNFNHQRSLLDVLRRLWQRYCETGEGYTPDELWQTIETVADENLSTWREQFIEGTVELPLQEWLTKVGLELVPQDALPYTGLQFQQEQGSLQIKAVLRDSPAEQAGLGAGDEIIALNGWRVKAQDWSERLREYTAGETIHLTWFHDQQLQSGDLILGEPQPHYRLQCRADATPSQRAHLEAWLGATATQL
MTIAILPARLANQIAAGEVVERPASVIKELIENSLDAGATSIHIDVDKGGIKKIKITDNGHGIVKEELTLALSRHATSKIKSLNDLEAIGSLGFRGEALASISSVARLTLTSKPQSQATAWQAVAEGRDMSVNIKPAAHPDGTSIEVLDLFFNTPARRKFLRTEKTEFNHIDEVVRRIALAHFEVSFSLTHNGNTVRQYRMASTHAQCIKRVAMVCGPKFIEHAVEVDCPHDNMTLSGWLAKPSFSRSQNDLCYSYVNGRMMRDKLINHAIRQAYADLLPPDTYPAFVLFLQLDHREVDVNVHPSKHEVRFHQSRYVHDFIYSVCHKALTSALAGEELFTTADSDLALVPEQSYSSLGANDRQGSHSSNTPTLNYPSADYIRPLQHVNDASNSQSTSSYSGYGQQHKTNAISKIAASNYQALMTPDKGSSAQVQNTSGSDQASAQKHETTTLQNSTDQSAFLSVHQPGYALYKTENGVRVLSLFKLAKSTYGKLVEQSWQNKTEQSDCPVECLVSQPLLLPVILSLSEQQLSFVLAEQEILSNAGIVFIQQHKNKIQIRQFPALLREQDVSNALIIIIEELIEKRSFTEGEALCETNLHQSIGLAMVLAEYDETQADILLRLTKKLFHEQLSQQLLLNSIPLDLTSHIKTLF
MTIAVLGATGMVGSRVITEAGARGHRVLALSRKPASEDPNVTLIAADANDPSAVREALAGVASNRAADAVVLTVRTHPVDQEFLIGATRTVLDIAAQLGIRVLVVGGAGALRSPDDHDLLVADNPTYVPAEWKTTAAAGIAQLRACQAHADADWVYLSPPALLEPGERTGRYRRGTDTLLTSADGRSWISAEDLAVAVVDELETPGRERLITVAHRDEPPSA
MTIGEIIDCLNRRESIAIIAKRLEISPYTLSKKLRLIGYEYDGEQKKRIFVGDGEEPRHLQLQEATALQYAKTDYQLLIYEQLQSIYELLRKREEVIVPIMNISTEKKKRTFSINKEILAKLDVISESKGIQKSKLVEEALQQFLQQYDFNNTSHFDN
MTIGYRDAAGDPLFPWLMEIKNSMEDLYAGKNSGYDLDKLLFDCISTYKKDSRYRNDLRFLKIWEDFERVYREIEETEICKGHSLLYEWYAIFLEVKGLWRRANSVYQTGLSRKAEPFDRLKEAHSLFLQRISKRTKASSLEKVGDDAQATDLETGFVNPWETSTVNGLIHKIKPQLVKYDGYHVSNKVFPGKANLSSLQNYSRNKIIEIGILFSYQSSLSPLQDKESFFLL
MTIIDDGKLKKAITAASLGNAMEWFDFGVYGFVAYALGKVFFPDANPSVQMIAALGTFSVPFLIRPLGGLFFGMLGDKYGRQKILAITIVIMSISTFCIGLIPSYATIGIWAPILLLLCKMAQGFSVGGEYTGASIFVAEYSPDRKRGFMGSWLDFGSIAGFVMGAGVVVLISSVVGEQNFLDWGWRIPFFLALPLGIIGLYLRHALEETPAFQQHVDTMEQGDREGLQDGPKVSFKEIATKHWRSLLTCIGLVISTNVTYYMLLTYMPSYLSHNLHYSEDHGVLIIIAIMVGMLFVQPVIGMLSDRFGRRPFILIGSVALFALSIPAFIMINSNVTGLIFAGLLLLAVVLNCFIGVMASSLPAMFPTHIRFSALASAFNISVLIAGLTPTLAAWLVETTQNLMMPAYYLMVIAVVGMATGLSMKETANRPLKGATPAASDIQEAKEILGEHYDNIEQKIEDIDQEIADLQAKRSRLVQQHPRIND
MTINWIQAAILGLFACLCSNSCMAGQAVGNYTIGRPLVGGLVCGIILGDLKLGIACGVAMQLVYIALVTPGGTVSADVRAISYIGIPLAMVAISTKGLDPLGGSAADLAKSVGTLVGTIGTVLFYSVAALNLVWQSFGWKDIKKGKLDHLYAINFGWPWISHLLFSFLPTVILTYFGATAVTAMRDALPMDGLAMKTLFTVGGMLPCVGIAILLRQIVNKNIDFVPFFVGFTLAASLKLNLVSITIIALLFAVIFYKIALIKNNTKLVDSTGSLTNDDEEEDI
MTIPTISELKKDRIIPHVFPNDKIDLNVDLFISFKAGKEVNHGNVLDIAGTGSVPRNIKFSEEPPDGYCFVLFMVDPDYPSRLRPDGKEYIHWVVSGIKTKELIKGTQKNCVTILPYVGPSIKKGTGLHRISFIISLIKEEDKDNITGLPHYKGEKYITRVKFNNYESVHNIAQINNMKIVGYNWCQIEG
MTISNGDVKSETCNNGSSEKKPFRIFVGYDPREDLAYQVCHHSITKRSSIPVEITPIIQSDLRKKGLYWRERGQLESTEFSFSRFLTPHLSDYQGWAMFVDCDFLYLADIKELTDLIDDKYAIMCVQHDYTPKETTKMDGAVQTVYPRKNWSSMVLYNCGHPKNKTLSPEIVNTQTGAFLHRFQWLEDEEIGSIPFVWNFLEGHNRVVEKDPTTQPKAVHYTRGGPWFDAWKDCEFADLWLNEMEEYNKENKKEADNAK
MTISYPAKEFLQTIFKTPYLKNLYLSPTMSIYDTLIGSPATTLKRYLLKSDVAVMYTSPSTYVENEDSSFRFNQNCSPMPPWVLGTKSKTIINTLPPKKSHKRTNTDIIGIHSMTSQNSSGSSYFQLLDLLADLGELIYDDEAMKGFYYEFMNLDNKNAFNNDENLNNLMITFTNLGGASNANESGLKIGATTSGVKTKVDEDIEPLCRHYKCATMDSSFIHWITHWNLLDQVFSSNFVGEGEYYTDPNEVKRILENRDLDTRSKQGKSLYIVDLEGSVRIHVMVNTSLYGMIVLLEVRHITLAKKKNDVDDEREQENEDSS
MTITNSKAEAWELIGNQFWTIGRVAARPSDRENDIFLENIVPGSTVAVIGASTRFLIEKALERGASVTVFDFSQRMCDDLAEALADRCVTIDLLDITAEIPKELAGHFDFVLNDRLINRFTTEEARRACLGMLSLVGSGTVRASVKLGFYDIDLKLIEYGEQSGTLAKFFDPSDKTFHFREAGDVLDRALVPHGLIDKPTLLEWYRRRGKETRFDDEDVRAL
MTIVLIAFALYLLATALLTWAVLRDGNQSPARWLAPALAAVALHAGYHVLVAVRTAGGPDMHFFAALSLCGLGMAALTAVFGGRGRMAAVGVVVFPLSAILLASYHAYGHEPSSDLGWRLELHAWLALLAYATLGIAALLAIMLWLQERALRRRDFHSWLRALPPLTELETLLFRTITVGFVLLSLTLLTGLLFVQDFLAQRLLQKTVLSILSWIVFGALLIGRWRNGWRGTKAVHWTLTAMALLVLSFFGSKFVIELVLGPR
MTIWLLQLVLVIALCNLCGRLAERLGQCAVVGEIAAGLLLGPSLFGVIAPSFYDLLFGPRTLSAMAQVGEVGLILLMFQIGLHMELSETLRGKRWRIPVAIAAGGLIAPAAIGMIVAIVSKDTLASDVPALPYILFCGVALAVSAVPVMARIIDDLALGAMVGARHAMSAAMLTDALGWMLLATIASLSSGPGWAFAHMLVSLLVYLVLCALLVRFVVRPVLARLASTAHATRDRLAVLLCFVIASALATSLIGFHSAFGALAAALFVRRVPGVAKEWRDNVEGFVKLVLMPVFFACAGLHASVGTIDDAASWMWCGVFLVGGFIGKFGGSYLGARGTGLAPHDAMLASSLMNTRGLMELIVLSIGLQMQILPPKVYTILVVFALVTTALTAPLVRFTLRMQTRAMSQQAA
MTIYAAGLPAFLSYFSIGLVCFAIFSTIYTRLTPHEEVELIKAGNISAVVAFLGALIGFSLPLASAAAHSVSLPDYVIWAAIGLLVQVLAFYIAKLTMTDLHLKITEGNVAAGLWSGGIAVVIGTLNAACMAY
MTIYNQAIESYDEKMAKDVIMLAGRILLESGAEGSRVEDTMTRIAITLGHKESNSFVTNTVINFMLHDESYPRMYRIRTRDTNLHRISRTNGISRRLALGDISLEDAFQELQKIYQEQSIKNHYLFYKFIAAAVISVSFLYLQGGHLTDVLTALLAGSFGYIVVEILQQKLHAQFIPEFMGALVIGLVTIIGHNLIPGGSISTIIIAAVMPIVPGVLITNAIQDLFGGHMLMFTTKSLEALVTAFGIGAGVSTVLIIF
MTKFNWHESAEKKWDSSAEFWNQNSQEMWDSGSRSTIIPFFEQYVKKEAQVLDVGCGDGYGTYKLSRAGYKAVGVDISEVMIQKGKERGEGPDLSFIKGDLSSLPFENEQFEAIMAINSLEWTEEPLRALNEIKRVLKSDGYACIAILGPTAKPRENSYPRLYGKDVVCNTMMPWEFEQLVKEQGFKVVDGIGVYKRGVNEKMLGQLSTELQQSLTFLWVFMLKKHKEMKEFLGGK
MTKIACVIVTYNRKQLLEEALNSVLIQTESPEYVFVIDNASTDGTEKYINDKFNFDNRQWHYVRCSQNLGGSAGFAQGMRLALQTDCSWISISDDDAIFEPGYFAALRKGIKQYPEQSVFSGSVLLPDGKHDMMHREVITNSATLTVRCVTDETYKHDFSYDIFSFVGILLSRQVIEAIGLPEQDYFIRFDDFEYAVRALKFGRFMNLSALEHHHHHH
MTKKQKEILFCDYFEEWVEVYKVGAIAKITLAKYYNAAKQLRDLCPKLFISDFDRREYQRIINVYAETHEKQTVKDFHHHVKACIKDLFHDGLIDKDPTYRVVIKGAEPTRAKKRKFLQKEELSKLLQSLDMSQIGFGWFVMLVAKTGMRYAEALAITPADFDWTAQTISINKTWDYKYNKGFAKTKTLSSVRTIKIDWQIVGQFKPLIKDFPEDEPIFVEKFGDGTYKRQFNSTINNFLAVKCNETGITQISFHALRHTHASVLLAEGVSIHTISARLGHADVGVTQETYAHVLDELQKKDDQKMLSVLMQIA

From a protein production outcome set (Wang et al. 2014)
